According to patent publication US20230277618A1 (BROAD INSTITUTE, published 2023):

Biological target: T1, KIDINS220 (kinase D interacting substrate 220), endogenous in HEK-293T cells (human, UniProt Q9ULH0 1-1771)
T1 construct: whole, on cells; Endogenous protein of the 293 cells, detected by immunoblot after co-immunoprecipitation; also called ARMS; SINO
Assay: co-immunoprecipitation by V5 tag from HEK-293T cells, immunoblot for endogenous KIDINS220

T1 sequence (Q9ULH0 whole entry): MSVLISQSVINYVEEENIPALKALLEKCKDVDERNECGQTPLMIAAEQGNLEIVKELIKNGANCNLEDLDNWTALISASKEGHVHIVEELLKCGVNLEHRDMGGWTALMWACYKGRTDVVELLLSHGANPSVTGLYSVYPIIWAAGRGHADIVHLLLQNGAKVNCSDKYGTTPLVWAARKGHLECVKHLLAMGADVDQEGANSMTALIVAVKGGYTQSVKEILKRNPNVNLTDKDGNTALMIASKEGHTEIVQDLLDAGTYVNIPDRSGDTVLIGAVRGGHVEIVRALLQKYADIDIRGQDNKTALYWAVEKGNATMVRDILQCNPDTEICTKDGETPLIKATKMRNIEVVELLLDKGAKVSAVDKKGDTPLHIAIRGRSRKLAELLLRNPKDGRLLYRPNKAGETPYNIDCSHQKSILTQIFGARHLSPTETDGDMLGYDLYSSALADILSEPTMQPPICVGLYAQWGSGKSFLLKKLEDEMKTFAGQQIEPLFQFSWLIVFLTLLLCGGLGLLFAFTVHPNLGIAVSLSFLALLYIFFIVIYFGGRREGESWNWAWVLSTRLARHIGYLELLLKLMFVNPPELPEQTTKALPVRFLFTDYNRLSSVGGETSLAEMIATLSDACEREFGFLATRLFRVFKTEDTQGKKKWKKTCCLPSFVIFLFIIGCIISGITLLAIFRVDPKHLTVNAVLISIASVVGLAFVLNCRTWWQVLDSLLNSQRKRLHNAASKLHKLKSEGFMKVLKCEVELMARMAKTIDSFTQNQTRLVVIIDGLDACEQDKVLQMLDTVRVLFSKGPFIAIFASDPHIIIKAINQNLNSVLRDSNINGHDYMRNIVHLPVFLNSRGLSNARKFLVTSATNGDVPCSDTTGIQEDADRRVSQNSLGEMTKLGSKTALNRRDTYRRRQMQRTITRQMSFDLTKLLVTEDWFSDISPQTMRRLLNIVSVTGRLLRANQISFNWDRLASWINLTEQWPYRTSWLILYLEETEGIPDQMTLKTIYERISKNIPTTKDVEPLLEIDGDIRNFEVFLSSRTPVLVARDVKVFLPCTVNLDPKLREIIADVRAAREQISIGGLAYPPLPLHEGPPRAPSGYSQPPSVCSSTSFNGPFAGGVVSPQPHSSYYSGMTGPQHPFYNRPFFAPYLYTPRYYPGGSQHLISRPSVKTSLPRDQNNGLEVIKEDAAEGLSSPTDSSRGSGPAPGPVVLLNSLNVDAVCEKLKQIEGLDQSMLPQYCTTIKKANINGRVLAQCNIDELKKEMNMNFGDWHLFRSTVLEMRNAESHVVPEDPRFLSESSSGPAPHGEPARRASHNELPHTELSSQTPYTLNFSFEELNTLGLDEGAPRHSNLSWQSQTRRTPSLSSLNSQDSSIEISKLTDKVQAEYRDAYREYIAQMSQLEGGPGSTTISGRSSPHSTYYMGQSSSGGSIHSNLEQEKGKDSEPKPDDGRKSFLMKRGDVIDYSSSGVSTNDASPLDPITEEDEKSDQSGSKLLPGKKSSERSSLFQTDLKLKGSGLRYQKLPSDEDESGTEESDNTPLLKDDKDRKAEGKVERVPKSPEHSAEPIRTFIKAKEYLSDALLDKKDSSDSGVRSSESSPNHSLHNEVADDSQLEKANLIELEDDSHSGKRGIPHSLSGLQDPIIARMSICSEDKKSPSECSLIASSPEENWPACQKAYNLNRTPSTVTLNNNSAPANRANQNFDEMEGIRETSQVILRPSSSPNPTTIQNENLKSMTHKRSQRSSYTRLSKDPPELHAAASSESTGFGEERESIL

B1: XPR1 SPX domain only construct with C-terminal V5 tag (other, human, UniProt Q9UBH6 1-224, looked up, not shown: small tags and cut ends)
chain: MKFAEHLSAHITPEWRKQYIQYEAFKDMLYSAQDQAPSVEVTDEDTVKRYFAKFEEKFFQTCEKELAKINTFYSEKLAEAQRRFATLQNELQSSLDAQKESTGVTTLRQRRKPVFHLSHEERVQHRNIKDLKLAFSEFYLSLILLQNYQNLNFTGFRKILKKHDKILETSRGADWRVAHVEVAPFYTCKKINQLISETEAVVTNELEDGDRQKAMKRLRVPPLG
notes: domain: SPX domain; also called SPX domain only constructs; N-terminal SPX domain of XPR1
binding result: no binding
